Source: patent US20150017195A1 (WASHINGTON UNIVERSITY, published 2015)

Key:
[1] = biological target: human coxsackie-adenovirus receptor (CAR) stably expressed on CHO-hCAR cells (human) (UniProt P78310)
[2] = biological target: human coxsackie-adenovirus receptor (CAR) stably expressed on CHO-hCAR cells (human) (UniProt P78310); experiment: cell-based or functional assay
[3] = biological target: T1, human coxsackie-adenovirus receptor (CAR) stably expressed on CHO-hCAR cells (human, UniProt P78310 20-365); experiment: cell-based or functional assay
T1 sequence: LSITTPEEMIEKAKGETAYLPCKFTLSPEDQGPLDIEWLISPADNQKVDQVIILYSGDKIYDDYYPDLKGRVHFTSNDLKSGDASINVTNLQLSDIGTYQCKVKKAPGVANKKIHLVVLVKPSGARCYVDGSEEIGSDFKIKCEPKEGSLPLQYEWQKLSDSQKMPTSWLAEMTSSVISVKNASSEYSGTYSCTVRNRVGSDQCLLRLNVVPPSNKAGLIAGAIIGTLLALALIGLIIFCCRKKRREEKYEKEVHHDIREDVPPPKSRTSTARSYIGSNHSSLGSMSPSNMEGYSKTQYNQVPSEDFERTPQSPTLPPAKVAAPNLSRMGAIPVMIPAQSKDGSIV

recombinant HAdV-5 fiber knob protein (from UniProt P11818 387-581)
IC50 (read off the curve); inhibition of luciferase gene transfer of Ad5Luc1 into CHO-hCAR cells [1]: 1 µg/mL
inhibition of Ad5Luc1 gene transfer to CHO-hCAR cells by knob protein at 50 µg/ml [2]: > 96%

B1: Ad5Luc1 control vector containing the HAdV-5 wild type fiber (other)
chain: MKRARPSEDTFNPVYPYDTETGPPTVPFLTPPFVSPNGFQESPPGVLSLRLSEPLVTSNGMLALKMGNGLSLDEAGNLTSQNVTTVSPPLKKTKSNINLEISAPLTVTSEALTVAAAAPLMVAGNTLTMQSQAPLTVHDSKLSIATQGPLTVSEGKLALQTSGPLTTTDSSTLTITASPPLTTATGSLGIDLKEPIYTQNGKLGLKYGAPLHVTDDLNTLTVATGPGVTINNTSLQTKVTGALGFDSQGNMQLNVAGGLRIDSQNRRLILDVSYPFDAQNQLNLRLGQGPLFINSAHNLDINYNKGLYLFTASNNSKKLEVNLSTAKGLMFDATAIAINAGDGLEFGSPNAPNTNPLKTKIGHGLEFDSNKAMVPKLGTGLSFDSTGAITVGNKNNDKLTLWTTPAPSPNCRLNAEKDAKLTLVLTKCGSQILATVSVLAVKGSLAPISGTVQSAHLIIRFDENGVLLNNSFLDPEYWNFRNGDLTEGTAYTNAVGFMPNLSAYPKSHGKTAKSNIVSQVYLNGDKTKPVTLTITLNGTQETGDTTPSAYSMSFSWDWSGHNYINEIFATSSYTFSYIAQE
luciferase activity in CHO-hCAR cells versus CHO cells (gene transfer assay) [3]: 80 fold
